In patent US20100226910:

Biological target: Synthetic human amyloid protein Aβ1-42 or Aβ1-40 (UniProt P05067)
Sequence (P05067 whole entry, looked up, tested part not stated): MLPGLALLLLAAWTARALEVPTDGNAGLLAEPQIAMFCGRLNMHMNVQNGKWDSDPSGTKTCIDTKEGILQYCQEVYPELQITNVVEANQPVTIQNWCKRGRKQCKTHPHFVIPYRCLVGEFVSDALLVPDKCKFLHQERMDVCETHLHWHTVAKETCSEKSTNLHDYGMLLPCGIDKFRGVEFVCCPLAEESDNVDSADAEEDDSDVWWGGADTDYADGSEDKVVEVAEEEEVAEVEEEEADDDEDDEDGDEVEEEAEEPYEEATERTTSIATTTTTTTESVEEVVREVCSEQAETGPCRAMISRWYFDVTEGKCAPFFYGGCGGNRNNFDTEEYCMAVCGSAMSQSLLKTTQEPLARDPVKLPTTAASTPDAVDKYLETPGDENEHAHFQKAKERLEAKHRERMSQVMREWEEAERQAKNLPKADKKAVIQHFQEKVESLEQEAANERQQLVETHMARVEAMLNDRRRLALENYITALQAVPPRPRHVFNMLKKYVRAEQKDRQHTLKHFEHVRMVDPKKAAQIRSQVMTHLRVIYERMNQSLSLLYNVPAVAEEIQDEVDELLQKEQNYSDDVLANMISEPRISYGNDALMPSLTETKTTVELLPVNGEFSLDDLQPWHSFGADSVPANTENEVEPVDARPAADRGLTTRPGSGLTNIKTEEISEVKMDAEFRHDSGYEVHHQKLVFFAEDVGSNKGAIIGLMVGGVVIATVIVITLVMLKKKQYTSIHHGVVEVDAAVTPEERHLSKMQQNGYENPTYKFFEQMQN

In the case of KLK1 (Sigma), the “cleavage of amyloid fibrils in vitro, mass spectra after digestion” value is reported as “KLK1 cleaves amyloid fibrils (FIG. 1); in panel C, there is a clear peak at about 2423 M/Z (mass to charge ration), which is an indication of cleavage” and the “cleavage of soluble amyloid in vitro, mass spectra after digestion” value is reported as “In panel B, there are no visible peaks when KLK1 was added to soluble amyloid. This indicates that KLK1 cleaved the soluble amyloid into smaller fragments”.
